The Kd is the equilibrium constant for the complex coming apart.

Like-named read-outs stand apart in the source and are kept apart here. Where only a bound is given, the exact number is not on record here.

The values that follow come from article PMC4902170 (JCI insight, 2016).

Assay in all cases: SPR
Assay [1] deals with Human haptoglobin (from pooled human plasma, a mixture of 1-1, 2-1, and 2-2 phenotype) (human) (UniProt P00738).
The target of assay [2] is T1, Recombinant human CD163 protein (human, UniProt Q86VB7-1 42-1050).
T1 sequence (Q86VB7 42-1050): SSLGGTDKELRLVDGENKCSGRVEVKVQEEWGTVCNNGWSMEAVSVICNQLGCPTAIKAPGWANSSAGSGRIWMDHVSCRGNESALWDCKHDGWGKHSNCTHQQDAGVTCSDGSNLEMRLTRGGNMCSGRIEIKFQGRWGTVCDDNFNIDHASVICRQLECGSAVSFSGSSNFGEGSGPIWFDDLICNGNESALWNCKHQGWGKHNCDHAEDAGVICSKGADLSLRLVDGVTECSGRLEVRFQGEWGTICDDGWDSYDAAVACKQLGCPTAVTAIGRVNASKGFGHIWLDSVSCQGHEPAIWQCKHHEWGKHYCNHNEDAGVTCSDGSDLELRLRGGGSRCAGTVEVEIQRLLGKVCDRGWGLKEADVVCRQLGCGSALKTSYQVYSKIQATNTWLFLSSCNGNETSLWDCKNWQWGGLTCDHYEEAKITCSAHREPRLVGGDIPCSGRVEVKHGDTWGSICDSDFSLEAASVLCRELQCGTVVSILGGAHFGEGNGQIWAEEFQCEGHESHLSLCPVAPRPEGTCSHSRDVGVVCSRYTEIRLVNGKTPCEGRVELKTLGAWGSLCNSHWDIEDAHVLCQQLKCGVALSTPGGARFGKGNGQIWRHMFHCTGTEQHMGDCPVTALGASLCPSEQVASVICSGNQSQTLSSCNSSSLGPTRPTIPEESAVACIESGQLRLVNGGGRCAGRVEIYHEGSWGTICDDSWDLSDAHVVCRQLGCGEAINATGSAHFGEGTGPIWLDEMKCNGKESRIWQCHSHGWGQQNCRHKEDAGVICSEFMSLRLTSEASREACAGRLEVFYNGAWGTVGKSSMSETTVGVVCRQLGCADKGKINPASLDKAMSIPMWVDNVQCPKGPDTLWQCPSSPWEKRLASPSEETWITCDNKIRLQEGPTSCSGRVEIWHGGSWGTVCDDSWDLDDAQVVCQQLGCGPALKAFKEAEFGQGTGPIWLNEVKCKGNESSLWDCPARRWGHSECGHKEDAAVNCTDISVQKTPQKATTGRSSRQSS
In assay [3] the target is T1, Recombinant human CD163 protein. This is another data set of the same source.

With “Recombinant HMGB1 (redox form not stated for the experiment) (from UniProt P09429 1-215) (natural protein)”, in assay [1], the Kd was 64 nM.

B1: HMGB1 and haptoglobin complexes (1:1 molar ratio) (complex)
chain 1: GKGDPKKPRGKMSSYAFFVQTCREEHKKKHPDASVNFSEFSKKCSERWKTMSAKEKGKFEDMAKADKARYEREMKTYIPPKGETKKKFKDPNAPKRPPSAFFLFCSEYRPKIKGEHPGLSIGDVAKKLGEMWNNTAADDKQPYEKKAAKLKEKYEKDIAAYRAKGKPDAAKKGVVKAEKSKKKKEEEDDEEDEEDEEEEEEEEDEDEEEDDDDE
chain 2: VDSGNDVTDIADDGCPKPPEIAHGYVEHSVRYQCKNYYKLRTEGDGVYTLNDKKQWINKAVGDKLPECEADDGCPKPPEIAHGYVEHSVRYQCKNYYKLRTEGDGVYTLNNEKQWINKAVGDKLPECEAVCGKPKNPANPVQ
chain 3: ILGGHLDAKGSFPWQAKMVSHHNLTTGATLINEQWLLTTAKNLFLNHSENATAKDIAPTLTLYVGKKQLVEIEKVVLHPNYSQVDIGLIKLKQKVSVNERVMPICLPSKDYAEVGRVGYVSGWGRNANFKFTDHLKYVMLPVADQDQCIRHYEGSTVPEKKTPKSPVGVQPILNEHTFCAGMSKYQEDTCYGDAGSAFAVHDLEEDTWYATGILSFDKSCAVAEYGVYVKVTSIQDWVQKTIAEN
As for B1, in assay [2], the Kd came to 130 nM.

B2: Recombinant HMGB1 (redox form not stated for the experiment) (natural protein, human, UniProt P09429 1-215, looked up)
chain: MGKGDPKKPRGKMSSYAFFVQTCREEHKKKHPDASVNFSEFSKKCSERWKTMSAKEKGKFEDMAKADKARYEREMKTYIPPKGETKKKFKDPNAPKRPPSAFFLFCSEYRPKIKGEHPGLSIGDVAKKLGEMWNNTAADDKQPYEKKAAKLKEKYEKDIAAYRAKGKPDAAKKGVVKAEKSKKKKEEEEDEEDEEDEEEEEDEEDEDEEEDDDDE
For B2, the Kd in assay [3] was above 1000 nM.
